The supplement of paper PMC9170038

Test system: K4 kissing-loop RNA reporter
Experiment: apparent KD of K4 kissing-loop reporter; higher = weaker reporter binding
Conditions: Eterna round: R107
Procedure: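 RNA-MaP round R107: designed RNA switches with theophylline, tryptophan, arginine or FMN aptamers are transcribed on-chip within common flanks. They are titrated with a labelled K4 kissing-loop RNA reporter in RNA-MaP buffer (100 mM Tris pH 7.5, 80 mM KCl, 4 mM MgCl2), without ligand or with the indicated ligand. Median apparent KD per design.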

[1] = input ligand: theophylline 20 uM
[2] = input ligand: tryptophan 2.4 mM
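Also: bound reporter read as fluorescence of individual clusters on recovered sequencing chips by microscopy, with normalized cluster intensities fitted with a binding model.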

| Sequence | apparent KD of K4 kissing-loop reporter (input ligand: FMN 200 uM) | apparent KD of K4 kissing-loop reporter (input ligand: arginine 13.2 mM) | apparent KD of K4 kissing-loop reporter (input ligand: none) | apparent KD of K4 kissing-loop reporter [1] | apparent KD of K4 kissing-loop reporter [2] |
| --- | --- | --- | --- | --- | --- |
| UGUCAUUGGUCUGAUACCAGUUGAUAAACUGGAGUGAUGUUCCAAGAACGAGAAACUCGCAACCCUUGGCAGCAGACCGAUGACU [TheoBS 17 #SwitchBubble 13 #StaticStem] | 302 nM | 66.9 nM | 170 nM | 400 nM | 132 nM |
| UAUUUAGUGACGGCCGCCACUAUUGUGAUUUAUUUGUUUGAGUGAUGUUUUGAUGUUUGAUUUUGUAGGACCGGGUUAUGUGUUA [awscmullin] | 1080 nM | 733 nM | 938 nM | 804 nM | 708 nM |
| UUUUUGGAGAAUUAUAGUGAUGUUAUGAAGGAGGAUAUCUGGAGAUGGAGAAGGCCUAGUGGCUCAGCCCUGGAGGGUGGGUGGG [ExFMNA.aB] | 822 nM | 562 nM | 705 nM | 556 nM | 572 nM |
| AAAUUUAUAUUAGAUACCAGCAUAUUGAAAGUUUAUUAUGACAAGAGUGAUGUUCUUGUAUGCCCUUGGCAGCUGGUAUGGGUUU [KL-XTheo-B25] | 114 nM | 107 nM | 104 nM | 110 nM | 110 nM |
| GACGUUGAAGCGGCCGCCACUAGGAAGGGUACGGAGAGUACAUCUCACGGAGAGUGAUGUUCUCAUAGGACCGGGCUCAUAUCAA [theeternabot_sameState_KL_Trp_B_21] | 308 nM | 215 nM | 605 nM | 238 nM | 362 nM |
| AAGUGUGUGGCGGCCGCCACUAGAAUCCAGUGAUGUUGGAGAUAUCACGUAAGUGAUAUCCAUCAUAGGACCGGGCCAUAUAGAA [Same State - Tryptophan B (Freestyle 18)] | 675 nM | 389 nM | 945 nM | 1280 nM | 755 nM |
| AUUUUGGUUUAGAGUGAUGUUCCUUGUGUUCGAGGACCGGUACGGCCGCCACUCGGGUAGAAAAGAAAAGAAAUGUUUGAUUUUU [BDazzled - #10 SS Tryptophan A] | 251 nM | 105 nM | 548 nM | 92.8 nM | 123 nM |
| UUGGCUGGACGGGAUACCAGCCAAAUCGUGUGCUUAGGAUGUCUAAGAGCCAGUGAUGUUGGCCCUUGGCAGCCCUCCUAGCUUG [Ordigear] | 154 nM | 115 nM | 138 nM | 124 nM | 136 nM |
| GUGCGGCUAGUGAUGUUGGUUGCGUGGGAAGGAGCGCAGAAACAUGCAGGUAGGUCGCCCACACCUCUGAAAGGAGGUUAAUUCA [Diusdige] | 200 nM | 172 nM | 133 nM | 171 nM | 248 nM |
| CGUUUAUAGCAGGAUACCAGUACGGAUAAAGUACGUUAAUAGUAGAGUGAUGUUCUAAAGUACCCUUGGCAGCUUAGAGUGAGUG [ExTheophylB.O] | 107 nM | 149 nM | 112 nM | 144 nM | 78.1 nM |
| GGGCAAGUGAGUGAUGUUCGAUGAUGCUUAAAGGAUAUGUAGGAAUACAGAAGGUUAUAUUCCCUGACAUUAGAUCUUUACAGGG [theeternabot_exclusion_KL_FMN_A_44] | 117 nM | 134 nM | 105 nM | 151 nM | 90.4 nM |
| GGGCGUAUUCACCGAGUGAUGUUCGGAAGGAAGGAUAUUCAAGAUUGAAGAAGGUCCGGCCCAUCGGCCAUUAAACUUGAAAGGU [theeternabot_sameState_KL_FMN_A_48] | 171 nM | 113 nM | 139 nM | 162 nM | 117 nM |
| AACGACUGGAUGAAUAACAUCUAGUCGAUUCGAGGACCGGUACGGCCGCCACUCGAGCUAACUGCGAGUGAUGUUCGAUAAUAAA [#OpenEnded 3] | 347 nM | 433 nM | 390 nM | 524 nM | 96.6 nM |
| GGUAUCCAGUACCAUUGCGUUAAAACAGAAGGAGCGAGAAUAGACUCAGGUAGGUCGCUGUUUAUAGUCGAGUGAUGUUCGAAUC [Same State Arginine A GF 14] | 202 nM | 281 nM | 265 nM | 315 nM | 188 nM |
| UAGUCCGGGUGAUGGUCAUCACGUGGCGGGCGAGGACCGGUACGGCCGCCACUCGACUUUGCAGUGAUGUUGCAAACCGGACAAU [Exclusion - Tryptophan A (Freestyle 22)] | 221 nM | 192 nM | 201 nM | 225 nM | 259 nM |
| AGCGGCCAGUCGGCCGCCACUCCAGGCAGUGAUGUUGCGAAGUUUCUACUAGAGUGAUGUUCUAAGAGGACCGGGACUGACGUAA [Exclusion Tryptophan B Gf 9] | 217 nM | 218 nM | 253 nM | 291 nM | 199 nM |
| GAUGGUGGCAGUGAAGUGAUGUUUCAUGAUACCAGUUUUAUAAGUAACCCUUGGCAGCAUCGUACGCAGCGUAGUGGACAUCACG [theeternabot_exclusion_KL_Theo_A_25] | 129 nM | 128 nM | 140 nM | 241 nM | 149 nM |
| CCAUCGCUAUUCGAUACCAGCUACUUAGUGAUGUUAAGUUAAAAUAAAUUGUAGAUUAAAAGCCCUUGGCAGCGAAUAGUGAUGG [Theophylline B K4 19] | 149 nM | 134 nM | 150 nM | 103 nM | 136 nM |
| AAAUGUUUGUAUUUGAACAAUUUCCUUAGAGAGGAUAUUGGUAAUACAAGAAGGCUCUGAUGGGAGUGAUGUUCCCAUAACGCGG [Exclusion FMN A GF14] | 110 nM | 114 nM | 119 nM | 126 nM | 91 nM |
| AAACGUUGGUGCGAUACCAGCUUGCGCGGAAAACGCGCUACUGGAGUGAUGUUCCUAAAUAGCCCUUGGCAGCGCACCGACGAAA [MAT - Same State Theophlline B - Mod of Eli - D9] | 193 nM | 146 nM | 155 nM | 107 nM | 170 nM |
| GGAGGGAUCUCGGCCGCCACUCAUAAGAAAUGGGCCUCAGAGAUAUAGUGAUGUUAUGUAAAGAAGAGGACCGGGAGAAAGAAGG [ExTryptoB.Db] | 148 nM | 141 nM | 141 nM | 135 nM | 144 nM |

| Sequence | apparent KD of K4 kissing-loop reporter (input ligand: FMN 200 uM) | apparent KD of K4 kissing-loop reporter (input ligand: arginine 13.2 mM) | apparent KD of K4 kissing-loop reporter (input ligand: none) | apparent KD of K4 kissing-loop reporter [1] | apparent KD of K4 kissing-loop reporter [2] |
| --- | --- | --- | --- | --- | --- |
| AAUAAUAAUAAAUAAAGAUUGAUGAGCAAACGAGGACCGGUACGGCCGCCACUCGAGUGAUGUUCGAGAAGCUCAUCAAUCAUAA [AK4.8 Exc Tryptophan A] | 147 nM | 134 nM | 138 nM | 112 nM | 337 nM |
| UAAGAGGACCACUGCAAAAGUCCUCGAAUACGAGGACCGGUACGGCCGCCACUCGAUAAUUUGCAGUGAUGUUGCAAGUAAGAAU [BrourdMod 4 - Jieux - Same State Tryptophan A] | 120 nM | 158 nM | 130 nM | 201 nM | 71.2 nM |
| AUAAACUUGCAGUGAUGUUGCAAGUAAGACUAGGAUAUCAGGAAACUGAGAAGGAGUCAUCUCCUUCACUUGCAACUAGGAGGAG [[K1]-[K2]-[F1]-[F2]-[F]'-[K]'-[F]''_Design6] | 122 nM | 93.4 nM | 143 nM | 144 nM | 133 nM |
| AUUAUAAAGUCGGCCGCCACUGAGAGUAGUGAUGUUACUCUUUUCCUUUAGAUAUUAUAUUUUAUCAGGACCGGGACAUCAGAUU [JR_ExcTryptoB_Sub020] | 198 nM | 170 nM | 208 nM | 180 nM | 162 nM |
| GCAGUGAUGUUGCGGAUGUACAGUGGAGUGCGAGGACCGGUACGGCCGCCACUCGUACAGAACAAGCUAAUAUAUCGAUAGGUGA [X] | 203 nM | 242 nM | 263 nM | 282 nM | 157 nM |
| GAUGAAUGCGGAAGGAGCGAGUUUUUGGGAGUGAUGUUCCCUGCAUAUGCACGUGGGAAAGCUCAGGUAGGUCGCCGCGCUUGUU [Same State Arginine B GF 28] | 183 nM | 244 nM | 324 nM | 208 nM | 204 nM |
| UAAUAAAUUCUGGCAAUGUCACUCUUCGAAGGAGCGGACGAAAGUCCAGGUAGGUCGCGAAGAGUGAUGUUCUUCGCGGCGCCAG [Omei KL Arginine A Exc A v1] | 299 nM | 235 nM | 235 nM | 304 nM | 268 nM |
| AGCAUUUUCAGAAGGAGCGUGAAUUAUUCAUAAUUAUAUUAUACGAGUGAUGUUCGUAUUUCACAGGUAGGUCGCUGAUAUAGCA [JR_SSArginiB_Sub002] | 51.4 nM | 78.3 nM | 50.1 nM | 81.6 nM | 46.6 nM |
| UAAUUUAUGUCUUUAAUAUAAUUUUCAGAUACCAGUGAUUAUUAACACCCUUGGCAGCUGUGUAGAGUGAUGUUCUCAUGCUUAA [#07 K4 Theophylline A Exclusion] | 307 nM | 354 nM | 365 nM | 373 nM | 229 nM |
| GCGAACAUUCGCAGUGAUGUUGCGACGGAAGGAGCGCGUGAAAACGCAGGUAGGUCGCCGACAACAUUAAUUUUAAUGUGUUCGC [Arginine A K4 28] | 411 nM | 308 nM | 425 nM | 356 nM | 256 nM |
| AGAGUCGGCUGUGAUACCAGUCGUAUUACAACAUGUCGCAGUGAUGUUGCGAGAUAGGAUGACCCUUGGCAGCACUCAGUACGAU [Same State Theophylline B GF 8] | 347 nM | 277 nM | 421 nM | 503 nM | 323 nM |
| UUUAAACAUAGUGAUGUUAUGUAACAAUGACGAGGACCGGUACGGCCGCCACUCGAGAGAGAUAAUGAUAAAAUAAAUAAUUUUC [#09 K4 Tryptophan A Same State] | 109 nM | 111 nM | 118 nM | 115 nM | 92.4 nM |
| UGUCAUUGGUCGGCCGCCACUUCGUAUGAAGUGAUGUUUUGUAGAUUGUGUUGAAAGGUAUGGUGAAGGACCGGGACCGAUGACU [FiskerMod 22 - Jieux - Same State - Tryptophan B] | 516 nM | 266 nM | 765 nM | 203 nM | 508 nM |
| AGUUCAGAGUGACUCGAUAAGAGUCACAAACGAGGACCGGUACGGCCGCCACUCGAAAUAACGAGAGUGAUGUUCUCGCUGGGCA [FiskerMod 2 - Jieux - Same State Tryptophan A] | 726 nM | 674 nM | 862 nM | 824 nM | 244 nM |
| GCUAUGGUAGGAAGGAGCGCUUAUUUAUUAAUAAGAGUGAUGUUCGAUAGUAGAUAUUUAUAGCAGGUAGGUCGCCUACUAUAGC [Arginine B K4 12] | 186 nM | 196 nM | 167 nM | 341 nM | 167 nM |
| AAGUGUGUGGCGGCCGCCACUAGAAUCCAGUGAUGUUGGAGUAAUCAAAUAAAUAAUAAUAAACAUAGGACCGGGCCAUAUAGAA [Same State - Tryptophan B (Freestyle 2)] | 154 nM | 138 nM | 147 nM | 134 nM | 129 nM |
| CCUAUCUCAUACGAUACCAGUCUACGAUAUUUUAUCGUUGCCAUCACCGAGUGAUGUUCGGACCCUUGGCAGCGUAUGGGAUAGG [Ex Theophylline B K4 5] | 340 nM | 277 nM | 355 nM | 544 nM | 346 nM |
| GGCAUGCGUAGAGUGAUGUUCUAAGAUGAUACCAGUGCGGAAACGCACCCUUGGCAGCAUCUGACGAGCAUGCCGGCGAAAGCCU | 792 nM | 586 nM | 814 nM | 607 nM | 771 nM |
| AAGCAGUCUCUUGUAGUCAUCGAAGAUGAACGAGGACCGGUACGGCCGCCACUCGGAGUGAUGUUCCGAAGGCUGCAAAAUAAAA [MatMod 18 - Jieux - Exclusion - Tryptophan A] | 300 nM | 297 nM | 309 nM | 404 nM | 324 nM |
| AACUCUCAGGCAGCCGAGUGAUGUUCGGCCCGAGGACCGGUACGGCCGCCACUCGGGCCUGAGAGAGGUUAUCAAAGAUAGCCAA [#01 K4 Tryptophan A Same State] | 194 nM | 75.2 nM | 89.8 nM | 142 nM | 131 nM |
